Entries after “also recorded” stand apart in the source; their conditions may differ. Peptide text beside a SMILES is read from it.
B1: FGF23^180-251: 72-amino acid C-terminal tail of human FGF23 (S180 to I251), expressed in E. coli (protein, listed as Homo sapiens)
chain: SAEDDSERDPLNVLKPRARMTPAPASCSQELPSAEDNSPMASDPLGVVRGGRVNTHAGGTGPEGCRPFAKFI
B2: FGF23^28-251: human FGF23 (A28 to I251), bioactive full-length ligand expressed in E. coli (protein, listed as Homo sapiens)
chain: ASPLLGSSWGGLIHLYTATARNSYHLQIHKNGHVDGAPHQTIYSALMIRSEDAGFVVITGVMSRRYLCMDFRGNIFGSHYFDPENCRFQHQTLENGYDVYHSPQYHFLVSLGRAKRAFLPGMNPPPYSQFLSRRNEIPLIHFNTPIPRRHTRSAEDDSERDPLNVLKPRARMTPAPASCSQELPSAEDNSPMASDPLGVVRGGRVNTHAGGTGPEGCRPFAKFI

Tests used:
[1] = test system: binary FGFR-Klotho complexes (FGFR1c, FGFR3c, or FGFR4); assay: Co-immunoprecipitation based competition assay, HEK293-Klotho lysates; type: binding
From the text: Co-immunoprecipitation may also be used to determine that an agent specifically binds the binary FGFR-Klotho complex. One aspect of the present invention utilizes co-immunoprecipitation studies. Subconfluent cultures of a HEK293 cell line ectopically expressing the FLAG-tagged membrane-spanning form of murine Klotho were transfected with expression vectors for V5-tagged FGFR1c, FGFR3c, or FGFR4. Two days later, the cells were lysed, and FGFR-Klotho complexes were isolated from cell lysate using anti-V5 agarose beads. The beads were then incubated with either FGF23^180-251 or FGF23^28-251 alone, or with mixtures of FGF23^28-251 with either increasing FGF23^180-251 or increasing FGF23^180-205. Bead-bound proteins were resolved on SDS-polyacrylamide gels, transferred to nitrocellulose membranes, and labeled using antibodies to Klotho, FGF23, and V5 epitope tag.
In parallel, subconfluent HEK293-Klotho cells (Kurosu et al., “Regulation of Fibroblast Growth Factor-23 Signaling by Klotho,” J Biol Chem 281(10):6120-6123 (2006), which is hereby incorporated by reference in its entirety) were transfected with expression vectors for V5-tagged FGFR1c, FGFR3c, or FGFR4 (Kurosu et al., “Regulation of Fibroblast Growth Factor-23 Signaling by Klotho,” J Biol Chem 281(10):6120-6123 (2006), which is hereby incorporated by reference in its entirety) and binding of FGF23 proteins/peptides to Klotho-FGFR complexes isolated from cell lysate was analyzed. Two days later, the cells were lysed (Kurosu et al, “Suppression of Aging in Mice by the Hormone Klotho,” Science 309(5742):1829-1833 (2005), which is hereby incorporated by reference in its entirety), and FGFR-Klotho complexes were isolated from cell lysate using anti-V5 agarose beads (Sigma-Aldrich) (Kurosu et al., “Regulation of Fibroblast Growth Factor-23 Signaling by Klotho,” J Biol Chem 281(10):6120-6123 (2006), which is hereby incorporated by reference in its entirety). The beads were then incubated with either FGF23^180-251 (1 nM) or FGF23^28-251 (1 nM) alone, or with mixtures of FGF23^28-251 (1 nM) with either increasing FGF23^180-251 (2 to 76 nM) or increasing FGF23^180-205 (0.1 to 10 μM). Bead-bound proteins were resolved on SDS-polyacrylamide gels, transferred to nitrocellulose membranes, and labeled using antibodies to Klotho (KM2119, (Kato et al., “Establishment of the Anti-Klotho Monoclonal Antibodies and Detection of Klotho Protein in Kidneys,” Biochemical Biophysical Res Communications 267(2):597-602 (2000), which is hereby incorporated by reference in its entirety)), FGF23 (R&D systems), and V5 epitope tag (Invitrogen).

Sprague-Dawley rats = assay: Plasma and urine phosphate in Sprague-Dawley rats after IV injection; type: in vivo, rat; settings: IV 0.1 μg kg body weight^−1, 3 h, healthy rats
From the text: The anti-phosphaturic activity of FGF23 C-terminal peptides was examined in normal Sprague-Dawley rats and in Hyp mice, a mouse model of human X-linked hypophosphatemia (XLH) (Beck et al., “Pex/PEX Tissue Distribution and Evidence for a Deletion in the 3′ Region of the Pex Gene in X-linked Hypophosphatemic Mice,” J Clin Invest 99(6):1200-1209 (1997), Eicher et al., “Hypophosphatemia: Mouse Model for Human Familial Hypophosphatemic (Vitamin D-resistant) Rickets,” Proc Natl Acad Sci USA 73(12):4667-4671 […], Strom et al., “Pex Gene Deletions in Gy and Hyp Mice Provide Mouse Models for X-linked Hypophosphatemia,” Hum Mol Genet. 6(2):165-171 (1997), which are hereby incorporated by reference in their entirety). The animals were fed a complete, fixed formula diet containing 0.94% phosphate. Anesthetized rats (220-250 g body weight) were administered IV either FGF23^28-251 (0.1 μg kg body weight^−1) or FGF23^180-251 (0.1 μg kg body weight^−1) or vehicle. Before and 3 h after the injection, blood was drawn from the carotid artery and urine was collected through bladder catheterization. Plasma and urine chemistry of animals were analyzed using Vitros Chemistry Analyzer (Ortho-Clinical Diagnosis). 10- to 15-week old Hyp mice were fasted for 8-12 h before administering IP either FGF23^180-251 (1 mg) or FGF23^180-205 (860 μg) or vehicle. Before and 2 h, 4 h, 8 h, and 24 h after the injection, urine and serum samples were collected. Phosphate concentrations in urine and serum were determined using Phosphorus Liqui-UV Test (Stanbio Laboratory), and urine creatinine levels were measured using DetectX™ Urinary Creatinine Detection Kit (LuminosAssays).

[2] = co-immunoprecipitation competition

Molecule | inhibition of binding (co-precipitation) of FGF23^28-251 with binary FGFR-Klotho complexes [1, 2] | reduced potency compared to the FGF23^180-251 peptide [1, 2] | molar excess that completely blocked binding of FGF23^28-251 to the FGFR-Klotho complex ([1]; FGF23^28-251 1 nM) [fold molar excess] | excretion rate and fractional excretion of phosphate (Sprague-Dawley rats) | plasma phosphate (Sprague-Dawley rats)
CSCC[C@H](NC(=O)[C@H](CCCNC(=N)N)NC(=O)[C@H](C)NC(=O)[C@H](CCCNC(=N)N)NC(=O)[C@@H]1CCCN1C(=O)[C@H](CCCCN)NC(=O)[C@H](CC(C)C)NC(=O)[C@@H](NC(=O)[C@H](CC(N)=O)NC(=O)[C@H](CC(C)C)NC(=O)[C@@H]1CCCN1C(=O)[C@H](CC(=O)O)NC(=O)[C@H](CCCNC(=N)N)NC(=O)[C@H](CCC(=O)O)NC(=O)[C@H](CO)NC(=O)[C@H](CC(=O)O)NC(=O)[C@H](CC(=O)O)NC(=O)[C@H](CCC(=O)O)NC(=O)[C@H](C)NC(=O)[C@@H](N)CO)C(C)C)C(=O)N[C@H](C(=O)N1CCC[C@H]1C(=O)N[C@@H](C)C(=O)N1CCC[C@H]1C(=O)N[C@@H](C)C(=O)N[C@@H](CO)C(=O)O)[C@@H](C)O [FGF23^180-205] (H-SAEDDSERDPLNVLKPRARMTPAPAS-OH; N-terminus and C-terminus assumed) | able to inhibit binding; also recorded: inhibited co-precipitation | over 100 fold | – | – | –
B1 | can inhibit binding | – | 76 | renal phosphate retention; also recorded: decreased | induced hyperphosphatemia
B2 | – | – | – | increased | significant decrease; also recorded: induced hypophosphatemia
